Measured values as given in paper PMC3894786 (Cell, 2012).

Key:
Assay in all cases: LUMIER with BACON
[1] = target: LCK (human, UniProt P06239 1-509)
[2] = target: CDK6 (human, UniProt Q00534 1-326)
[3] = target: STK38 (human, UniProt Q15208 1-465)
[4] = target: FGFR3 (human, UniProt P22607 23-806)
Sequence of FGFR3 (P22607 23-806): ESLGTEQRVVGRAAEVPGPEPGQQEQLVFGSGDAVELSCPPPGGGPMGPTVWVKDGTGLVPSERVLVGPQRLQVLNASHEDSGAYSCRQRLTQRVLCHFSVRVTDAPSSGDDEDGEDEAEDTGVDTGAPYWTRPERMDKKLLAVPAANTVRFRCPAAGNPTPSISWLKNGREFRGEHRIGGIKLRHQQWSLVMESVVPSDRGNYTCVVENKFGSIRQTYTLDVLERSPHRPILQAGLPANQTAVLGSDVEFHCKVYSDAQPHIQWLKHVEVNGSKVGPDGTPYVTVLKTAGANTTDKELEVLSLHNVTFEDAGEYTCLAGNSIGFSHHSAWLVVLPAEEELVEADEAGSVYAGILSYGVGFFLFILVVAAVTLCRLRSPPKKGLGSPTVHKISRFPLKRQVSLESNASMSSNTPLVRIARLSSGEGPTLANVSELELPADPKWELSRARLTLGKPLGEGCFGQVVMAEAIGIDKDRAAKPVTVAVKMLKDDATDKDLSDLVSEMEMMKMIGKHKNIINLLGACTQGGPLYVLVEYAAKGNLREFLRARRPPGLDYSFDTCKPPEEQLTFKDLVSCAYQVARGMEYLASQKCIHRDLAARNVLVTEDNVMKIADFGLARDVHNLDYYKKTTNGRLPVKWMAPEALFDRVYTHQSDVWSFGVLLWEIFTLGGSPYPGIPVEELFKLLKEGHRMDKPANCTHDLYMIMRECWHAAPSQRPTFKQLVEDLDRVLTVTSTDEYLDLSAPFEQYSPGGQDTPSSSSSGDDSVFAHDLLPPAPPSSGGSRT

Sequence of LCK (P06239 whole entry): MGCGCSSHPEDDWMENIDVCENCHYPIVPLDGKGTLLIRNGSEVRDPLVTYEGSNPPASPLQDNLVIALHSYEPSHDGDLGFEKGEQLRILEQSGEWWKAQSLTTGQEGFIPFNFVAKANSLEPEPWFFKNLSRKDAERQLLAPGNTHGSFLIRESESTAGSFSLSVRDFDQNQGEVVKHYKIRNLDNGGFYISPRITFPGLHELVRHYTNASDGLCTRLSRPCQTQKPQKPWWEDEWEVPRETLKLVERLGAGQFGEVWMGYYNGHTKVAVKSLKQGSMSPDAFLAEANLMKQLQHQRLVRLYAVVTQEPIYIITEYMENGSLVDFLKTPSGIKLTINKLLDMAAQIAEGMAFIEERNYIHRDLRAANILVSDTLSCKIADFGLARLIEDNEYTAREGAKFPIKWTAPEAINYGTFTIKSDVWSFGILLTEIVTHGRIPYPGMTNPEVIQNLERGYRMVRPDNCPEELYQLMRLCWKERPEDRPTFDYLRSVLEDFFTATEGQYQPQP
Sequence of CDK6 (Q00534 whole entry): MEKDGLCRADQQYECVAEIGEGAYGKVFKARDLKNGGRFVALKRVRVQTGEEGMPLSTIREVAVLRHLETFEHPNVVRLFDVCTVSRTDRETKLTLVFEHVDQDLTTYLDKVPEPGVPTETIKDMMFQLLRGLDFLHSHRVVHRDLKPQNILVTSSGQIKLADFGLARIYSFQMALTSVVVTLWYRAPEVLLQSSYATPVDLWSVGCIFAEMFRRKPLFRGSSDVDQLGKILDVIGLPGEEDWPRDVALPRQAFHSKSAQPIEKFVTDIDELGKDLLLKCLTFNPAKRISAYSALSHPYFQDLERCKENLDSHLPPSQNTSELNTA
Sequence of STK38 (Q15208 whole entry): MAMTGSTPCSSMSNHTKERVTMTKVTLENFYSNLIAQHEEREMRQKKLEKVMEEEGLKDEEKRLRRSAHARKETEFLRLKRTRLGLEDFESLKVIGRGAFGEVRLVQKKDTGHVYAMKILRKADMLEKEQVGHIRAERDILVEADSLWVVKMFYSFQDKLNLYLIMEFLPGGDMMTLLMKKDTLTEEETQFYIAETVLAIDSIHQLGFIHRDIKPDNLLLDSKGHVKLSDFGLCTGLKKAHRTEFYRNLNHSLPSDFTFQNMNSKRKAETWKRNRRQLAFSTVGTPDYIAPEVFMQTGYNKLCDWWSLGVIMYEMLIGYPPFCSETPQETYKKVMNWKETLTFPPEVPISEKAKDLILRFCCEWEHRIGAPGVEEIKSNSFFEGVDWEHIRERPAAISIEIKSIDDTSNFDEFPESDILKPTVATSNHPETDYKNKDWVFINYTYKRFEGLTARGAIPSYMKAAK

B1: Renilla luciferase-tagged HSP90β (natural protein)
chain: not shown
In the case of B1, the “half-life of dissociation after 500 nM ganetespib” value (“half-life of dissociation” for short) [1] is reported as about 3 min, the “half-life of dissociation” value [2] is reported as about 3 min and the “half-life of dissociation” value [3] is reported as about 3 min. For the same binder, the “half-life of dissociation” value [4] was 29 min.
